Data published in patent US20240109955A1.

Legend:
Experiment in all cases: cell-based or functional assay
[1] = biological target: SARS-CoV-2 Omicron BA.4/5 spike protein ([change]) (SARS-CoV-2) (UniProt P0DTC2)
[2] = biological target: SARS-CoV-2 Omicron BA.1 spike protein (SARS-CoV-2) (UniProt P0DTC2)
[3] = biological target: SARS-CoV-2 spike protein, Omicron sublineage BA.2 (SARS-CoV-2) (UniProt P0DTC2)
[4] = biological target: SARS-CoV-2 spike protein, Omicron sublineage BA.2.12.1 (SARS-CoV-2) (UniProt P0DTC2)
[5] = biological target: SARS-CoV-2 spike protein, Omicron sublineage BQ.1.1 (SARS-CoV-2) (UniProt P0DTC2)
[6] = biological target: SARS-CoV-2 Omicron BA.4/5 spike protein (SARS-CoV-2)
[7] = biological target: SARS-CoV-2 spike protein, Omicron sublineage BF.7 (SARS-CoV-2) (UniProt P0DTC2)
[8] = biological target: SARS-CoV-2 Omicron BQ.1.1 spike protein (SARS-CoV-2)
[9] = biological target: SARS-CoV-2 Omicron BA.2.75.2 spike protein (SARS-CoV-2)
[10] = biological target: SARS-CoV-2 spike (S) protein, Omicron sublineage BA.2.75.2 (SARS-CoV-2)
[11] = biological target: SARS-CoV-2 spike protein, Omicron BQ.1.1 (SARS-CoV-2)
[12] = biological target: SARS-CoV-2 spike (S) protein, Omicron sublineage BA.4/5 (SARS-CoV-2)
[13] = biological target: SARS-CoV-2 spike (S) protein, Omicron sublineage BQ.1.1 (SARS-CoV-2)
[14] = biological target: SARS-CoV-2 spike protein, Omicron BA.4/5 (SARS-CoV-2)
[15] = biological target: SARS-CoV-2 spike protein, Omicron sublineage XBB1.5 (SARS-CoV-2) (UniProt P0DTC2)
[16] = biological target: SARS-CoV-2 spike protein, Omicron sublineage BA.4/5 (SARS-CoV-2) (UniProt P0DTC2)
[17] = biological target: SARS-CoV-2 Omicron BA.2.75.2 spike protein (SARS-CoV-2) (UniProt P0DTC2)
[18] = biological target: SARS-CoV-2 Omicron XBB spike protein (SARS-CoV-2) (UniProt P0DTC2)
[19] = biological target: SARS-CoV-2 spike protein, Omicron sublineage XBB (SARS-CoV-2) (UniProt P0DTC2)
[20] = biological target: SARS-CoV-2 Omicron BQ.1.1 spike protein (SARS-CoV-2) (UniProt P0DTC2)

Sequence of A19-46.1 (antibody) (VH): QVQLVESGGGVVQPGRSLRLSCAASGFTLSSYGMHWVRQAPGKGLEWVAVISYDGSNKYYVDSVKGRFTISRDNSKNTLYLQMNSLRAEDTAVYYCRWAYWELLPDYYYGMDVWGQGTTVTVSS
Sequence of A19-46.1 (antibody) (VL): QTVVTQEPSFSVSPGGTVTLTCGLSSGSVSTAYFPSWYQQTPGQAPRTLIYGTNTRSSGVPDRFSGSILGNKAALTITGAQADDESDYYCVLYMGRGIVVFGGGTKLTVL
Sequence of A19-46 (antibody) (VH): as the sequence (VH) above
Sequence of A19-46 (antibody) (VL): as the sequence (VL) above
Sequence of MX492 (A19-46 x A23-58H/B1-182L) (bispecific antibody) (chain): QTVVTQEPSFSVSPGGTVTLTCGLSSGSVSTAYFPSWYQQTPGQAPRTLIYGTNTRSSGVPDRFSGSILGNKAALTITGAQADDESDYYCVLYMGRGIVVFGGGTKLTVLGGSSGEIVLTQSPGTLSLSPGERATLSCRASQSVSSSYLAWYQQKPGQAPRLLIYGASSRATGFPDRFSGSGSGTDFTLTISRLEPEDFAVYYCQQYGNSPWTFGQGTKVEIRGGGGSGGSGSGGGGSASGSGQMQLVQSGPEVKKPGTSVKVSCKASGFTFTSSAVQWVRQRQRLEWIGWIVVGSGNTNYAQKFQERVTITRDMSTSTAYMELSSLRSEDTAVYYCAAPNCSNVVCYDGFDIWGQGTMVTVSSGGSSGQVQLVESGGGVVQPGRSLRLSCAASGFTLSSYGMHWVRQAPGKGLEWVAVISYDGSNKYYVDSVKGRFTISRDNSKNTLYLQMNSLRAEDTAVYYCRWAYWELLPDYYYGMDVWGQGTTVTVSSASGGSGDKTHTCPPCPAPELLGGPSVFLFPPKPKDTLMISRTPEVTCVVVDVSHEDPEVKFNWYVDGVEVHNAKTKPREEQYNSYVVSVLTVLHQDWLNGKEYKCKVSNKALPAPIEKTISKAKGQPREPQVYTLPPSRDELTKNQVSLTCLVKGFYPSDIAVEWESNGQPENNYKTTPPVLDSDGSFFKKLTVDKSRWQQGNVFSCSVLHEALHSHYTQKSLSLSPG
Sequence of MX413 (A19-61 x A23-58H/B1-182L) (bispecific antibody) (chain): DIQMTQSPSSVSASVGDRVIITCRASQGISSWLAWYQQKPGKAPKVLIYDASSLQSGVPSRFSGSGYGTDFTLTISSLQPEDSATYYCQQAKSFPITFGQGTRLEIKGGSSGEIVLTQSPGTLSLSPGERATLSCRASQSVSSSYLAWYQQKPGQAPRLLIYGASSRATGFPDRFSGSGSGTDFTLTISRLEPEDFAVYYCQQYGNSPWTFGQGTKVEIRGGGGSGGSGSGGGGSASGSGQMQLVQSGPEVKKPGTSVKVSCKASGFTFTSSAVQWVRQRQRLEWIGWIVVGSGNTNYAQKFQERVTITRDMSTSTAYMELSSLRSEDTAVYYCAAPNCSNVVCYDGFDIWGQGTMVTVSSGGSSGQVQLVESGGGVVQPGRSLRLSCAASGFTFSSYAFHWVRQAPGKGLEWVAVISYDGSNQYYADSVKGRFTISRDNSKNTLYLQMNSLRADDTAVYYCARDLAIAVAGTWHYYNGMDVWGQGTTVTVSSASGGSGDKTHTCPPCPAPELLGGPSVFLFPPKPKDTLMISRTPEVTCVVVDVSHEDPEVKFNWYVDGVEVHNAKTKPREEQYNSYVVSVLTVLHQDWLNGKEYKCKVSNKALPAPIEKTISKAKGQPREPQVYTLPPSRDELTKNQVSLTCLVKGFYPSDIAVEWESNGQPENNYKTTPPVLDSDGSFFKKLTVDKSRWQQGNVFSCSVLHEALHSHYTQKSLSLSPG

“MX492 (A19-46 x A23-58H/B1-182L) (bispecific antibody)” showed an IC50, pseudovirus neutralization [1] of over 10000 nM, an IC80, pseudovirus neutralization [1] of over 10000 nM and an IC50, pseudovirus neutralization [2] of 1 nM. The IC80, pseudovirus neutralization [2] was 3 nM.

For B1-182.1 (antibody), the IC50, pseudovirus neutralization [3] was 320 nM, the IC80, pseudovirus neutralization [3] was 1210 nM and the IC50, pseudovirus neutralization [4] was 165 nM. For the same substance, the IC80, pseudovirus neutralization [4] was 1380 nM.

Substance A19-61.1 (antibody) has an IC50, pseudovirus neutralization [1] of 19 nM, an IC80, pseudovirus neutralization [1] of 31 nM and an IC50, pseudovirus neutralization [2] of over 10000 nM. For the same substance, the IC80, pseudovirus neutralization [2] was over 10000 nM.

Substance A19-46.1 (antibody) has an IC50, pseudovirus neutralization [1] of over 10000 nM, an IC80, pseudovirus neutralization [1] of over 10000 nM and an IC50, pseudovirus neutralization [2] of 77 nM. It also gave an IC80, pseudovirus neutralization [2] of 211 nM.

For A19-46 (antibody), the IC50, pseudovirus neutralization [5] was 386 nM, the IC80, pseudovirus neutralization [5] was 1110 nM and the IC50, pseudovirus neutralization [6] was over 10000 ng/mL. It also gave an IC80, pseudovirus neutralization [6] of over 10000 ng/mL, an IC50, pseudovirus neutralization [7] of 5300 nM and an IC80, pseudovirus neutralization [7] of over 10000 nM. For the same substance, the IC50, pseudovirus neutralization [8] was 386 ng/mL, the IC80, pseudovirus neutralization [8] was 1110 ng/mL and the IC50, pseudovirus neutralization [9] was over 10000 ng/mL. The IC80, pseudovirus neutralization [9] was over 10000 ng/mL, the IC50, pseudovirus neutralization [10] was over 10000 ng/mL and the IC80, pseudovirus neutralization [10] was over 10000 ng/mL. It also gave an IC50, pseudovirus neutralization [11] of 386 ng/mL, an IC80, pseudovirus neutralization [11] of 1110 ng/mL and an IC50, pseudovirus neutralization [12] of over 10000 ng/mL. For the same substance, the IC80, pseudovirus neutralization [12] was over 10000 ng/mL, the IC50, pseudovirus neutralization [13] was 386 ng/mL and the IC80, pseudovirus neutralization [13] was 1110 ng/mL. It also gave an IC50, pseudovirus neutralization [14] of over 10000 ng/mL, an IC80, pseudovirus neutralization [14] of over 10000 ng/mL and an IC50, pseudovirus neutralization [15] of over 10 µM. It also gave an IC80, pseudovirus neutralization [15] of over 10 µM, an IC50, pseudovirus neutralization [16] of over 10000 nM and an IC80, pseudovirus neutralization [16] of over 10000 nM.

Work on A23-58.1 (antibody) yielded an IC50, pseudovirus neutralization [3] of 263 nM, an IC80, pseudovirus neutralization [3] of 1080 nM and an IC50, pseudovirus neutralization [4] of 100 nM. It also gave an IC80, pseudovirus neutralization [4] of 504 nM.

Substance “MX413 (A19-61 x A23-58H/B1-182L) (bispecific antibody)” has an IC50, pseudovirus neutralization [1] of 4 nM, an IC80, pseudovirus neutralization [1] of 8 nM and an IC50, pseudovirus neutralization [2] of 1290 nM. For the same substance, the IC80, pseudovirus neutralization [2] was 6540 nM.

For bebtelovimab (antibody), the IC50, pseudovirus neutralization [17] was 5.67 ng/mL, the IC80, pseudovirus neutralization [17] was 20.7 ng/mL and the IC80, pseudovirus neutralization [1] was 1 nM. The IC50, pseudovirus neutralization [5] was over 10000 nM, the IC80, pseudovirus neutralization [5] was over 10000 nM and the IC50, pseudovirus neutralization [7] was 3.28 nM. The IC80, pseudovirus neutralization [7] was 26.9 nM, the IC50, pseudovirus neutralization [2] was 1 nM and the IC80, pseudovirus neutralization [2] was 7 nM. It also gave an IC50, pseudovirus neutralization [18] of over 10000 ng/mL, an IC80, pseudovirus neutralization [18] of over 10000 ng/mL and an IC50, pseudovirus neutralization [19] of over 10 µM. The IC80, pseudovirus neutralization [19] was over 10 µM, the IC50, pseudovirus neutralization [3] was 14.3 nM and the IC80, pseudovirus neutralization [3] was 18.5 nM. It also gave an IC50, pseudovirus neutralization [15] of over 10 µM, an IC80, pseudovirus neutralization [15] of over 10 µM and an IC50, pseudovirus neutralization [20] of over 10000 ng/mL. The IC80, pseudovirus neutralization [20] was over 10000 ng/mL, the IC50, pseudovirus neutralization [16] was 1.88 nM and the IC80, pseudovirus neutralization [16] was 3.74 nM. For the same substance, the IC50, pseudovirus neutralization [4] was 8.52 nM and the IC80, pseudovirus neutralization [4] was 14.8 nM.

Substance S2E12 (antibody) has an IC50, pseudovirus neutralization [3] of 9.9 nM, an IC80, pseudovirus neutralization [3] of 48.2 nM and an IC50, pseudovirus neutralization [4] of 15.6 nM. For the same substance, the IC80, pseudovirus neutralization [4] was 46.6 nM.

Work on A23-58H/B1-182L hybrid antibody yielded an IC50, pseudovirus neutralization [1] of over 10000 nM, an IC80, pseudovirus neutralization [1] of over 10000 nM and an IC50, pseudovirus neutralization [2] of 53 nM. It also gave an IC80, pseudovirus neutralization [2] of 90 nM.
